Biological target: GST-EphB1cy, self-phosphorylated in vitro (+ATP) (UniProt P54762)
Sequence (P54762 564-984): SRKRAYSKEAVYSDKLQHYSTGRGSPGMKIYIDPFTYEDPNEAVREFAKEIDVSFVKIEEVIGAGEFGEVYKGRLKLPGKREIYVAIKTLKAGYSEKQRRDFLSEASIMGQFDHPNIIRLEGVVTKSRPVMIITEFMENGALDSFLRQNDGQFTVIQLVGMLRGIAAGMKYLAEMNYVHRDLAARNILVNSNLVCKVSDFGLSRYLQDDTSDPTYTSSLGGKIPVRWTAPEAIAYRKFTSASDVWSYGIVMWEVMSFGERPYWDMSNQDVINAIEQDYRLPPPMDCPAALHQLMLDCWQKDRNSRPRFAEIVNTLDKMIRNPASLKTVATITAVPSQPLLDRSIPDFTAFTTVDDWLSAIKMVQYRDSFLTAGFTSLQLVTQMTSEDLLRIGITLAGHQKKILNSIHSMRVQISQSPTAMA

## purified recombinant LMW-PTP (A isoform)
  in vitro tyrosine phosphorylation of LMW-PTP: EphB1 receptor tyrosine kinase phosphorylates LMW-PTP in vitro

Source: patent publication US20030157712
